# Values of other authors in patent US20260007686A1, “COMPOSITIONS AND METHODS FOR IMPROVING VISION” (Ripple Therapeutics Corporation, priority 2022, published 2026).
# Key:
# [1] = tested on: macular edema in individuals with diabetic macular edema (DME); conditions: literature studies (Boyer et al.; Callanan et al.)
# [2] = tested on: visual acuity of individuals with diabetic macular edema (DME); conditions: literature studies (Boyer et al.; Callanan et al.)
molecule,measurement,setting,value
"ranibizumab (antibody, chains of the INN, looked up, V domains shown, Fab, ranibizumab injection, a clinically approved anti-VEGF intravitreal injection) VH: EVQLVESGGGLVQPGGSLRLSCAASGYDFTHYGMNWVRQAPGKGLEWVGWINTYTGEPTYAADFKRRFTFSLDTSKSTAYLQMNSLRAEDTAVYYCAKYPYYYGTSHWYFDVWGQGTLVTVSS VL: DIQLTQSPSSLSASVGDRVTITCSASQDISNYLNWYQQKPGKAPKVLIYFTSSLHSGVPSRFSGSGSGTDFTLTISSLQPEDFATYYCQQYSTVPWTFGQGTKVEIK",Mean Change in CST at M3,[1]; month 3,−140 μm
same,Mean Change in CST at M6,[1]; month 6,−133 μm
same,Mean Change in BCVA at M3,[2]; month 3,+6 letters
same,Mean Change in BCVA at M6,[2]; month 6,+8 letters
